Measured values taken from patent publication US20260104418A1 (published 2026).

What was measured:
[1] = target: T1, human Claudin-18.2 (CLDN18.2) (human); experiment: FACS titration of AF647-labelled IgG on HEK293T cells overexpressing human CLDN18.2 (clone C12)
T1 construct: On cells: endogenous on HUPT4 and SNU601; also called human CLDN18.2
Description: (§1) CLDN18.2-expressing cells were used in FACS assays to determine the CLDN18.2 antibody's ability to bind to CLDN18.2 on the surface of cells and to cross-react with other CLDN family members. HEK293 T cells engineered to express human CLDN18.2 fused to GFP, mouse CLDN18.2 fused to GFP, CLDN18.1-GFP, or GFP alone (without CLDN18.2) were used as artificial models of CLDN18.2 expression. HUPT4, SNU601, and PATU8988S cells were used as endogenous models of CLDN18.2 expression.
(§2) For each type of cell tested and for each mAb, cells were detached from the surface of the culture flasks by versene (instead of trypsin) in order to protect the cell surface proteins. The detached cells were then incubated with Alexa Fluor®-labeled CLDN18.2 mAbs for 30 min in the dark on ice at a pre-determined concentration. […] After washing, the cells were read by a BD Accuri™ Flow Cytometer C6 to detect antibody-antigen protein binding in channel FL4H. Each antibody was tested at varied concentrations to establish a dose-fluorescence curve.

[2] = target: T1, human Claudin-18.2 (CLDN18.2); experiment: FACS, 1.5 ug antibody, HUPT4 cells (endogenous CLDN18.2)
Protocol: (§3) FAGS assays were carried out to determine relative antigen binding strengths of the humanized antibodies (at either 1.5 ag or 0.3 rag) for binding to CLDN18.2 as expressed by the indicated cancer cell lines.

[3] = target: T1, human Claudin-18.2 (CLDN18.2); experiment: FACS, 1.5 ug antibody, HEK293T-CLDN18.2 C12 clone
Protocol: as §3

[4] = target: T1, human Claudin-18.2 (CLDN18.2); experiment: FACS titration of AF647-labelled IgG on SNU601 cells (endogenous CLDN18.2)
Description: as §1, §2

[5] = target: T1, human Claudin-18.2 (CLDN18.2); experiment: FACS titration of AF647-labelled IgG on HUPT4 cells (endogenous CLDN18.2)
Description: as §1, §2

B1: Ab 409 (antibody, V domains shown)
VH: QVQLQQSGAELARPGASVKLSCKASGYTFTSYGISWVKQRTGQGLEWIGEISPRSGNTYYNEKFKGKATLTADKSSSTAYMELRSLTSEDSAVYFCATGVITTVIPTDWYFDVWGTGTTVTVSS
VL: DIQMTQTTSSLSASLGDRVTISCRASQDISNYLNWYQQKPDGTVKLLIYYTSRLHSGVPSRFSGSGSGTDYSLTISNLEPEDIATYYCQHYSKLPPTFGSGTKLEIK
notes: Full-length IgG from ExpiCHO; 38 is used
EC50 [1]: 605 nM

B2: Reference antibody 1 (Benchmark 1-175D10) (antibody, V domains shown)
VH: QVQLQQPGAELVRPGASVKLSCKASGYTFTSYWINWVKQRPGQGLEWIGNIYPSDSYTNYNQKFKDKATLTVDKSSSTAYMQLSSPTSEDSAVYYCTRSWRGNSFDYWGQGTTLTVSS
VL: DIVMTQSPSSLTVTAGEKVTMSCKSSQSLLNSGNQKNYLTWYQQKPGQPPKLLIYWASTRESGVPDRFTGSGSGTDFTLTISSVQAEDLAVYYCQNDYSYPFTFGSGTKLEIK
FACS signal (relative antigen binding strength) [2]: 2450 | EC50 [1]: 1090 nM | FACS signal (relative antigen binding strength) [3]: 80600

B3: Ab 369 (antibody, V domains shown)
VH: DVKLVESGGGLVKPGGSLKLSCAASGFTFTSYTMSWVRQTPEKRLEWVATIIIGGSYTYYPDSVKGRFTISRDNAKNTLYLQMSSLKSEDTAMYYCTRLVKGNAMDYWGQGTSVTVSS
VL: DILMTQSPSSLTVTAGEKVTMTCKSSQSLLNSGNQKNYLTWYQQKPGQPPKLLIYWASSRESGVPDRFTGSGSGTDFTLTISSVQAEDLAVYYCQNDYSYPFTFGAGTKLELK
notes: Full-length IgG from ExpiCHO
EC50 [4]: 276 nM | EC50 [1]: 40 nM | EC50 [5]: 265 nM

B4: Ab 384 (antibody, V domains shown)
VH: QVQLQQSGAELARPGASVKLSCKASDYTFTSYVISWVKQRTGQGLEWIGEIYPRNGNTYYNEKFKGKATLTADKSSSTAYMELRSLTSEDSAVYFCARSYYGNSFAYWGQGTLVTVSA
VL: DIVMTQSPSSLTVTAGEKVTMSCKSSQSLLNSGNQKNYLTWYQQRPGQPPKLLIYWASTRESGVPDRFTGSGSGTDFTLTISSVQAEDLAVYCCQNNYYYPFTFGGGTKLGIK
notes: Full-length IgG from ExpiCHO
EC50 [1]: 595 nM

B5: Ab 392 (antibody, V domains shown)
VH: EVQLQQSGPELVKPGASVKMSCKASGFTFTSYVMHWVKQKSGQGLEWIGYINPYNDDIKYNAKFEDKATLTSDRSSSTAYMELSSLTSDDSAVYFCTRGDYWGQGTTLTVSS
VL: DIVMTQSPSSLTVTTGEKVTMDCKSSQSLLNSGNQKNYLTWYQQKSGQPPKLLIYWASIRKSGVPDRFTGSGSGTDFTLTISSVQAEDLAVYYCLNDYSFPLTFGAGTKLELK
notes: Full-length IgG from ExpiCHO
EC50 [1]: 446 nM

B6: Ab 358 (antibody, V domains shown)
VH: VVQLVESGGDFVQPGGSRKLSCAVSGFTFSSFGMHWVRQAPEKGLEWVAYISSGTTNIYYADTVKGRFTVSRDNPKNSLFLHMTSLRSEDTAMYYCVRSGYYGNSLDYWGQGTPLTVSS
VL: DIVMTQSPSSLTVTAGEKVTMSCKSSQSLFNSGNQRNYLTWYQQKPGQPPKLLIYWASTRESGVPDRFTGSGSGTGFTLTISSVQAEDLAFYYCQNVYIYPLTFGLGTKLELR
notes: Full-length IgG from ExpiCHO
EC50 [4]: 414 nM | EC50 [1]: 54.5 nM | EC50 [5]: 111 nM

B7: Ab 331 (antibody, V domains shown)
VH: EVQLQQSGPELVKPGASVRMSCKASGYTFTSYIMHWVKQKPGQGPEWMGYINPYNDGTNYNEKFKDKATLTSDKSSSTAYMDLSSLTSEDSAVYYCTRGDYWGQGTSVTVSS
VL: DIVMTQSPSSLTVTAGEKVTMSCKSSQSLLNSGNQKNYLTWYQQKPGQPPKLLFYWASTKKSGVPDRFTGSGSRTDFTLTISSVQAEDLAVYYCLNDYSFPLTFGAGTKLELK
notes: Full-length IgG from ExpiCHO
EC50 [4]: 106 nM | EC50 [1]: 23.1 nM | EC50 [5]: 606 nM

B8: Ab 400 (antibody, V domains shown)
VH: QVQLKESGPGLVAPSQSLSITCTVSGFSLNSYGVSWVRQPPGKGLEWLGVIWGDGSTNYHSALKSRLNINKDKSKSQVFLKLNSLQTDDTATYYCARPTRGNAMDYWGQGTSVTVSS
VL: DVVMTQSPSSLTVTAGEKVTMNCKSSQSLLNSGNQRSYLTWYQQKPGQPPKLLIYWASTRESGAPDRFTGSGSGADFTLTISSVQAEDLAIYYCQNNYNYPFTFGSGTKLEIK
notes: Full-length IgG from ExpiCHO
EC50 [4]: 270 nM | EC50 [1]: 31.2 nM | EC50 [5]: 97.8 nM

B9: Ab 360 (antibody, V domains shown)
VH: VVQLQQSGPELVKPGASVKMSCKASGYTFTSYLMHWVRQKPGLGLDWIGYINPYNDGTNYNAKFIDKATLTSDKTSSTAYMELSSLTSEDSAIYYCTRGDYWGQGTSVTVSS
VL: DIVMTQSPSSLAVTAGEQVTMSCKSSQSLLNSGNQKNYLTWYQQKPGQPPKLLIYWASIRQSGVPDRFTGSGSGTDFTLTISSVQAEDLAVYYCLNDYGFPLTFGAGTKLELK
notes: Full-length IgG from ExpiCHO; also called 360-Chim
EC50 [4]: 119 nM | EC50 [1]: 39.7 nM | EC50 [5]: 693 nM

B10: Ab 347 (antibody, V domains shown)
VH: EVQLQQSGPELVKPGASVKMSCKASGYTFTSYLIHWVKQKPGQGLEWIGYINPYNDATYYNEKFKAKATLTSDKSSSTAYMELSSLTSEDTAIYYCTRGDYWSQGTSVTVSS
VL: DIVMTQSPSSLTVTAGEKVTMSCKSSQSLLNSGNQKNYLTWYQQKPGQPPKLLIYWASTRQSGVPDRFTGSGSGTDFTLTISSVQAEDLTVYYCLNDYSFPLTFGAGTKLELK
notes: Full-length IgG from ExpiCHO
EC50 [4]: 276 nM | EC50 [1]: 70.4 nM | EC50 [5]: 294 nM

B11: Reference antibody 2 (Benchmark 2-163E12) (antibody, V domains shown)
VH: QVQLQQSGAELARPGASVKLSCKASGYTFTDYYINWVKQRTGQGLEWIGEIYPGSGNTYYNEKFKGKATLTADKSSSTAYMQLSSLTSEDSAVYFCARSYGAFDYWGQGTTLTVSS
VL: DIVMTQSPSSLTVTAGEKVTMSCKSSQSLLNSGNQKNYLTWYQQKPGQPPKLLIYWASTRESGVPDRFTGSGSGTDFTLTISSVQAEDLAVYYCQNDYSYPLTFGAGTKLELK
FACS signal (relative antigen binding strength) [2]: 11100 | EC50 [1]: 1740 nM | FACS signal (relative antigen binding strength) [3]: 125000

B12: Ab 432 (antibody, V domains shown)
VH: QIQLQQSGAELARPRASVKLSCKASGYTFTSDVISWVKQRPGQGLEWIGESYLRNGNTYYNENFKGKATLTADKSSSTAYMELRSLTSEDSAVYFCARSYYGNSFAYWGQGTLVTVSA
VL: DIVMTQSPSSLTVTAREKVTMNCKSTQSLLNSGNQKNYLTWYQQKPGQPPKLLIYWASTRESGVPDRFTGSGSGTDFTLTISSVQAEDLAVYYCQNAYYYPFTFGGGTKLEIK
notes: Full-length IgG from ExpiCHO; also called 432-Chim
EC50 [4]: 245 nM | EC50 [1]: 42.3 nM | EC50 [5]: 348 nM

B13: Ab 307 (antibody, V domains shown)
VH: DVKLVESGGGLVKPGGSLKLSCAASGFTFSSYTMSWVRQTPEKRLEWVATIIIGGSYTYYPDSVKGRFTISRDNAKNTLYLQMSSLKSEDTAMYYCTRLVKGNAMDYWGQGTSVAVSS
VL: DIVMTQSPSSLTVTTGEKVTMSCKSSQSLLNSGNQKNYLSWYQQIPGQPPKLLFYWASTRESGVPDRFTGSGSGTDFTLTISNVQAEDLAVYYCQNDYSYPFTFGAGTKLELR
notes: Full-length IgG from ExpiCHO
EC50 [4]: 221 nM | EC50 [1]: 39.1 nM | EC50 [5]: 336 nM

B14: Ab 376 (antibody, V domains shown)
VH: DVKLVESGGGLVKPGGSLKLSCAASGFTFSSYTMSWVRQTPEKRLYWVATISSGVSYTYYPDSVKGRFTISRDNAKNTLYLQMSSLKSEDTAMYYCTRLTKGNAMDYWGQGTSVTVSS
VL: DIVMTQSPSSLTVTAGEKVTMSCKSSQSLLNSGNQKNYLTWYQQKPGQPPKLLIYWASTRESGVPDRFTGSGSGTGFTLTISSVQAEDLAVYYCQNDYSYPFTFGAGTKLELK
notes: Full-length IgG from ExpiCHO
FACS signal (relative antigen binding strength) [2]: 31300 | EC50 [1]: 52.1 nM | FACS signal (relative antigen binding strength) [3]: 137000

B15: Ab 416 (antibody, V domains shown)
VH: EFQLQQSGPELVKPGASVKISCKASVYSFTGYNMNWVKQSNGKSLEWIGVINPNYGNTNYNQRFKGKATLTVDQSSSTAYMQLNSLTSEDSAVYYCARSEDYYNIRGASWGQGTLVTVSA
VL: QIVLTQSPAIMSASPGQKVTITCSASSTINYMHWYQQKLGSSPKLWIYDTSKLAPGVPARFSGSGSGTSYSLTISSMEAEDAASYFCHQWSSYPPTFGSGTKLELK
notes: Full-length IgG from ExpiCHO
EC50 [1]: 597 nM

B16: Ab 301 (antibody, V domains shown)
VH: VVQLQQSGPELVKPGASVKMSCKASGYTFTSFLIHWVRQKPGLGLEWIGYINPYDYGINYNVKFMDKVTLTSDKTSSTAYMELSSLTSADSAIYYCTRGDYWGQGTSVIVSS
VL: DIVMTQSPSSLAVTTGEQVTMNCKSSQSLLNSGNQKNYLTWYQQKTGQSPKLLIYWASTRQSGVPDRFTGSGSGTDFTLTISSVQAEDLAVYYCLNDYGFPLTFGAGTKLELK
notes: Full-length IgG from ExpiCHO
EC50 [4]: 256 nM | EC50 [1]: 22.1 nM | EC50 [5]: 143 nM
